From paper PMC9605988, “Juxtaposition of Bub1 and Cdc20 on phosphorylated Mad1 during catalytic mitotic checkpoint complex assembly” (Nature Communications, 2022)
Entries after “also recorded” stand apart in the source; their conditions may differ.

Columns and labels:
[1] = Aggregation or non-specific binding at high concentration in the fluorescence anisotropy assay; assay type: physicochemical; conditions: further titration of Cdc20N to saturation; total fluorescence intensity
Experimental: (§1) All reactions were completed in a buffer of 25 mM HEPES pH 7.75, 1 mM TCEP, 100 mM NaCl, 0.05% (v/v) Tween-20. […] Measurements were performed with a PheraStar plate reader FSX plate reader (BMG Labtech) using an optic module for λex = 485 nm, λem = 520 nm. Reactions were carried out in a total volume of 40 μl at 25 °C in a black, flat-bottom, non-binding surface 384-well plate (Corning). All experiments were performed as technical triplicates and data were analysed in PRISM 9.3.1 (GraphPad Software).

pMad1CTD = assay: 1H,15N HSQC / CON NMR titration with pMad1CTD; assay type: binding, human; conditions: pMad1CTD
Experimental: (§2) Uniformly-labelled proteins were expressed in M9 minimal media (6 g/L Na2HPO4, 3 g/L KH2PO4, 0.5 g/L NaCl) supplemented with 1.7 g/L yeast nitrogen base without NH4Cl and amino acids (Sigma Y1251). 1 g/L ^15NH4Cl and 4 g/L unlabelled glucose were supplemented for ^15N labelling. For ^13C/ ^15N double-labelled samples, unlabelled glucose was replaced with 3 g/L ^13C-glucose. Prior to all NMR experiments, proteins were dialysed into 20 mM HEPES, pH 7.0, 100 mM NaCl and 1 mM TCEP.
The following protein concentrations were used in NMR studies: ^1H,^15N HSQC of Mad1^CTD were collected with a 100 µM sample, whereas a 50 µM sample was used for titrations with Cdc20^N and Cdc20^α1. Cdc20^Box1 peptide was added at mM concentrations to minimise dilution during titration. […] Mad1^CTD was concentrated to 3 mM for titrations into Cdc20^N. ^1H,^15N HSQC of Mad2 were collected at 100 µM. All Mad2 NMR samples contain an R133A mutation to prevent Mad2 dimerisation. The C-Mad2 sample additionally contains an L13A mutation which favours the C-Mad2 state. Cdc20^MIM-bound C-Mad2 sample was prepared by adding a 1:2 excess of Cdc20^MIM peptide to an O-Mad2 sample with R133A mutation. To follow the O-to-C conversion of Mad2, the samples were prepared on ice and monitored using BEST ^1H,^15N-TROSY HSQC. The spectra were acquired with 16 scans and a recycle delay of 400 msec, giving an experimental time of 12 min per spectrum.
Mad1^CTD and Mad2 experiments were performed using an in-house 800 MHz Avance III spectrometer and Cdc20^N experiments were performed using an in-house 700 MHz Avance II + spectrometer, both equipped with triple resonance TCI CryoProbes. To retrieve signals that suffer from exchange broadening, we also utilised the Bruker 950 MHz Avance III spectrometer located at MRC Biomedical NMR Centre (Francis Crick Institute). Mad1^CTD and Mad2 spectra were collected at 298 K. Cdc20^N spectra were collected at 278 K to minimise exchange broadening for the largely disordered Cdc20^N.
(§3) For binding studies, the relative peak intensities were normalised to the C-terminal residue Ala718 of Mad1^CTD or Gly73 of Cdc20^N and expressed as PIbound/PIfree, with PIfree and PIbound being the peak heights of the free and bound forms, respectively. Weighted chemical shift perturbations were calculated using the equation[63]: Δδ = [(ΔδHNWHN)^2 + (ΔδNWN)^2)^2]^1/2 where ΔδHN and ΔδN are the chemical shift perturbations in ^1H and ^15N dimensions respectively. The weight factors were determined from the average variances of chemical shifts in the BMRB database, where WHN = 1 and WN = 0.16.

pMad1CTD homodimer = assay: AUC-SE (sedimentation equilibrium) of pMad1CTD and Cdc20N; assay type: binding, human; conditions: for calculated mass of major species (Cdc20N:pMad1CTD): 20 °C, expected 35.7 kDa
Experimental: Sedimentation equilibrium experiments were carried out in a buffer of 20 mM HEPES pH 7.5, 100 mM NaCl and 1 mM TCEP. Samples were loaded into 12 mm six-sector cells, placed in an An-50Ti rotor and centrifugated at 10,200, 12,200 and 21,000 rpm at 20 °C until equilibrium had been reached using an Optima XL-I analytical ultracentrifuge (Beckman). The data were analysed in SEDPHAT 15.2b[68]. The partial-specific volumes (v-bar) were calculated using Sednterp[69]. The density and viscosity of the buffer were determined with a DMA 4500 M density metre (Anton Parr) and an AMVn viscometer (Anton Paar). Data were plotted with the program GUSSI[70].

[2] = target: T1, Mad1CTD (unphosphorylated) (Homo sapiens, UniProt Q9Y6D9); assay: 1H,15N HSQC / CON NMR titration with unphosphorylated Mad1CTD; assay type: binding; conditions: residues 616-660 of Mad1CTD in HSQC; N-terminal half of Cdc20N in CON
T1 construct: the C-terminal domain of Mad1 (residue 597–718); made in house
T1 sequence (Q9Y6D9 597-718): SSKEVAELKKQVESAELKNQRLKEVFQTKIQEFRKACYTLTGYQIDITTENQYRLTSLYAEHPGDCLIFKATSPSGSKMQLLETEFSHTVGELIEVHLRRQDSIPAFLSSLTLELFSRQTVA
Experimental: as §2
The following protein concentrations were used in NMR studies: ^1H,^15N HSQC of Mad1^CTD were collected with a 100 µM sample, whereas a 50 µM sample was used for titrations with Cdc20^N and Cdc20^α1. […] To follow the O-to-C conversion of Mad2, the samples were prepared on ice and monitored using BEST ^1H,^15N-TROSY HSQC. […]
as §3

[3] = system: Mad1CTD R617E/K619D mutant; assay: SEC-MALS, Cdc20N with Mad1CTD R617E/K619D; assay type: binding, human; conditions: 1:1.2 ratio Mad1CTD dimer to Cdc20N
Experimental: (§4) Size-exclusion chromatography coupled with multi-angle static light scattering (SEC-MALS), was performed using an Agilent 1200 series LC system with an online Dawn Helios ii system (Wyatt) equipped with a QELS + module (Wyatt) and an Optilab rEX differential refractive index detector (Wyatt). About 100 μl purified protein at ~3.0 mg/ml was auto-injected onto Superdex 75 or a Superdex 200 Increase 10/300 GL column (GE Healthcare) and run at 0.5 ml/min. The molecular masses were analysed with ASTRA 7.3.0.11 (Wyatt). Data were plotted using Prism 8.4.3 (GraphPad Software, Inc). Purified Cdc20^N and Cdc20^N mutants were incubated with Mad1^CTD wild-type or mutants at a 1:1.2 ratio of Mad1^CTD dimer to Cdc20^N.

[4] = system: AF488-Bub1CD1:Mad1CTD complex (unphosphorylated); assay: Fluorescence anisotropy: Cdc20N titrated into preformed AF488-Bub1CD1:Mad1CTD complex; assay type: binding, human
Experimental: as §1

[5] = target: T1, Mad1CTD (unphosphorylated); assay: SEC-MALS, Cdc20N with unphosphorylated Mad1CTD; assay type: binding; conditions: 1:1.2 ratio Mad1CTD dimer to Cdc20N
Experimental: as §4

[6] = system: AF488-Bub1CD1:pMad1CTD complex; assay: Fluorescence anisotropy: Cdc20N titrated into preformed AF488-Bub1CD1:pMad1CTD complex; assay type: binding, human; conditions: preformed AF488-Bub1CD1:pMad1CTD
pMad1CTD (Mad1CTD pT716) = assay: SEC-MALS, Cdc20N with pMad1CTD; assay type: binding, human
Experimental: as §4

B1: Cdc20^N: N-terminal truncation of human Cdc20 (residues 1–73) (protein)
chain: MAQFAFESDLHSLLQLDAPIPNAPPARWQRKAKEAAGPAPSPMRAANRSHSAGRTPGRTPGKSSSKVQTTPSK
modifications: left off: His6, N-terminal, cleaved | MBP, N-terminal, cleaved
In the case of B1, the “aggregation or non-specific binding to the plate” value [1] is reported as “large increases in the total fluorescence intensity indicating aggregation or non-specific binding to the plate”, the “NMR signal attenuation / line broadening” value (pMad1CTD) is reported as “more pronounced and extensive; also recorded: More significant signal attenuation” and the “calculated mass of major species (Cdc20N:pMad1CTD)” value (pMad1CTD homodimer; 20 µM Mad1CTD + 40 µM Cdc20N) is reported as 32.6 kDa. For the same molecule, the “calculated mass of major species (Cdc20N:pMad1CTD)” value (pMad1CTD homodimer; 20 µM Mad1CTD + 80 µM Cdc20N) was 35.9 kDa, the “stoichiometry on pMad1CTD homodimer” value (pMad1CTD homodimer; even with four-fold molar excess of Cdc20N) was “only a single copy of Cdc20^N bound” and the “NMR signal attenuation / line broadening” value [2] was “Significant signal attenuation; also recorded: substantial signal attenuation”. The “binding by SEC-MALS” value [3] was “did not bind”, the “change in fluorescence anisotropy on Cdc20N titration (competition test)” value [4] was “increased the fluorescence anisotropy” and the “binding by SEC-MALS” value [5] was “did not bind; also recorded: no binding”. For the same molecule, the “change in fluorescence anisotropy on Cdc20N titration (competition test)” value [6] was “increased the fluorescence anisotropy”, the “binding by SEC-MALS” value (pMad1CTD (Mad1CTD pT716); 1:1.2 ratio Mad1CTD dimer to Cdc20N) was “formed a stable complex” and the “observed mass of pMad1CTD:Cdc20N complex” value (pMad1CTD (Mad1CTD pT716); SEC-MALS, expected 36 kDa for pMad1CTD dimer with one Cdc20N) was 38 kDa.
